We go through one substance from paper PMC2132842.

Some targets named below: GAL4/CAS (human) (UniProt P55060); GAL4/Imp βΔ1/261 (human) (UniProt Q14974); GAL4/LEF-1 (297–399) (UniProt Q9UJU2).
Holding throughout (experiment): two-hybrid

Chain of GAL4/CAS (human) (P55060 whole entry, the tested form may be a part): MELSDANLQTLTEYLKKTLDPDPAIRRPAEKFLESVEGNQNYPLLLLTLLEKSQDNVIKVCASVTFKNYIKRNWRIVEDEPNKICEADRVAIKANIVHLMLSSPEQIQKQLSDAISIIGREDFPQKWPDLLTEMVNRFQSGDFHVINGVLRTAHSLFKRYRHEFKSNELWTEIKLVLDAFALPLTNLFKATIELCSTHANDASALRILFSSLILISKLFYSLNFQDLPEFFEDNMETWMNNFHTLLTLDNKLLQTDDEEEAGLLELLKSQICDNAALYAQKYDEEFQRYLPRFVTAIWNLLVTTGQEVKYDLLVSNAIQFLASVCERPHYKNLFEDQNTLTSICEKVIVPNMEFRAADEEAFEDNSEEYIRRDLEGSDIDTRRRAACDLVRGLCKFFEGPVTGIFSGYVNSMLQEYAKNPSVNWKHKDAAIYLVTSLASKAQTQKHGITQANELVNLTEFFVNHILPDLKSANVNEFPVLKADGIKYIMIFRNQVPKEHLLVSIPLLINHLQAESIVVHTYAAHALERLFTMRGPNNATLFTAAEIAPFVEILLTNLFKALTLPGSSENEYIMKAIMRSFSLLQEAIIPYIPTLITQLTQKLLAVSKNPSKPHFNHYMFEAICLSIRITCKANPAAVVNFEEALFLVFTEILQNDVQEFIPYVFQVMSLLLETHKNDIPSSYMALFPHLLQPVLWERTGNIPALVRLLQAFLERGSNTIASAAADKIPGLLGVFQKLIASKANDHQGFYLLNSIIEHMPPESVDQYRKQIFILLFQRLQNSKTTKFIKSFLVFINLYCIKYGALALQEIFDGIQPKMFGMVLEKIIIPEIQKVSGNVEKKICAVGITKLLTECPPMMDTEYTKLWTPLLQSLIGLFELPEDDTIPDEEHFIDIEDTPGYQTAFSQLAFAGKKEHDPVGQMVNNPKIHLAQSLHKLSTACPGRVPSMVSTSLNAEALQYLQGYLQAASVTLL
Chain of GAL4/Imp βΔ1/261 (human) (Q14974 262-876, stated change not applied): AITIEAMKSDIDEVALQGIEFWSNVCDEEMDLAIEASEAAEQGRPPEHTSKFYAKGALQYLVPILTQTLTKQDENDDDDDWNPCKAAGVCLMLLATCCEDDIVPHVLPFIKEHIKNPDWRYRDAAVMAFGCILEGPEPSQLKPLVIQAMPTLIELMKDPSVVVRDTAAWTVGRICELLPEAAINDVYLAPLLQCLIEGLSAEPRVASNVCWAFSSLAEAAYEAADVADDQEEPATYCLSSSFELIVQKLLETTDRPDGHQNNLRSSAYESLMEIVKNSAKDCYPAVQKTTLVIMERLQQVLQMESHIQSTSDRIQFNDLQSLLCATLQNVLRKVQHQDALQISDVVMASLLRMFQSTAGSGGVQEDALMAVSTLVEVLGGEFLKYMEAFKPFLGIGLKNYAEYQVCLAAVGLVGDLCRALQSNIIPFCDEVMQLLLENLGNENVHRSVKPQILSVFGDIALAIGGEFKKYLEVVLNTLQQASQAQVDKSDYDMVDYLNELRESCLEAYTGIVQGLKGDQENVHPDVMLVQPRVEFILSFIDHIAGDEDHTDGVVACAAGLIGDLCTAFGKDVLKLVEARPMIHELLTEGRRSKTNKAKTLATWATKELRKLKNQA
Chain of GAL4/LEF-1 (297–399) (Q9UJU2 297-399): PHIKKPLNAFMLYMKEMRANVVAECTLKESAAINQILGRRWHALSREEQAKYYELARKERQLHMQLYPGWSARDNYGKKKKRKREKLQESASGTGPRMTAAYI

With “VP16/Imp α2 (from UniProt P52292 1-529) (natural protein)”, the β-gal activity with GAL4/CAS (human) was determined as 434 mOD/ml; in the test with GAL4/Imp βΔ1/261 (human), 1200 mOD/ml; with GAL4/LEF-1 (297–399), 130 mOD/ml.
